In the nanobody polyreactivity screen of Harvey et al. (2022):

Assay: yeast display, Sf9 membrane polyspecificity reagent, FACS + sequencing; frameworks hold sequencing errors
In short: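 Using colony PCR, genes from sorted yeast display clones were amplified, then sequenced on MiSeq at 2 × 250 and filtered by CDR length. The clones had been stained with 10% biotinylated, detergent-solubilized Sf9 membrane reagent for 1 hour at 4 °C and sorted by FACS into low and high (top ~1%) gates on anti-HA and streptavidin fluorescence. Polyreactivity labels come from the gate of origin.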

Row | Sequence | polyreactivity (PSR sort gate)
1 | QVQLVESGGGLVQAGGSLRLSCAASGSTFVSYAMGWYRQAPGKERELVAAISWSGGSTYYADSVKGRFTISRDNAKNTVYLQMNSLKTEDTAVYYCAAELDWWYDYWGQGTQVTVSS | high polyreactivity
2 | QVQVVESGGGLVQAGGSLRLSCAASGSIFPFYVMGWYRQAPGKEREFVATISSRGGSTYYADSVKGRFTISRDNAKNTVYLQMNSLKPEDTAVYYCAAGWYRNDWGQRLHTYYYWGQGTQVTVSS | high polyreactivity
3 | QVHLVESGGGLVQAGGSLRLSSAASGFIFLQYAMGWYRQAPGKEREFVAVISRSGGGTYYADSVKGRFTISRDNAKNTVYLQMNSLKPEDTAVYYCAALGATRSRYDYWGQGTQVTVSS | high polyreactivity
4 | QVQLVESGGGLVQAGGSLRLSCAAYGYTFDSYTIGWYRQAPGKERELVAAITRSGSSTYYADSVKGRFTISRDNAKNTVYLQMNSLKPDDTAVYSCAAGWRRADGIEYWYGYWGQGTQVTVSS | high polyreactivity
5 | QVQLVESGGGLVQAGGTLRLSCAASGSIFYYYAMGWYRQAPGKERELVDTISSSSGSTYYADSVKGRFTISRDNAKNTVYLQMISLKPEDTAVYYCAAPLPHRGYYEGYWGQRTQVTVSS | low polyreactivity
6 | QVQLVESGGGLVQAGGSLRLSCAASGFTFYLYAMGWYRQAPGKERELVAASTWSGGRTYYADSVKGRFTISRDNAKNTVYLQMNSLKPEDTADYYCAVDGFRGRSHGANDFWGQGTQVTVSS | high polyreactivity
7 | QVQLVESGGGLVQAGGSLRLSCAASGLTFAQNAMGWYRQAPGKERELVAAITRSGGRTYYADSVKGRFTISRDNSKNTVYFQMNSLKPEDTAVYYCAARVLQYSGYYYWGQGTQVTVSS | high polyreactivity
8 | QVQLVESGGGLVQAGGSLRLSCAASGRIFWYYTMGWYRQAPGKERELVASINSDTGTYYADSVKGRFTISRDNAKNTVYLQMNSLKPEDTAVYYCNKDDYALSNTWRPEYDYWGQGTQVTVSS | low polyreactivity
9 | QVQLVESGGGLVQAGGSLRISSAASGRIFVTNAMRWYRQAPGKERELLAAITRGGNTNYADSVKGRFTISRDNAKNTVYLQMNSLKPEDTAVYYCAADTSYDSVYGYFPGYYYWGQGTQVTVSS | low polyreactivity
10 | QVQLVESGGGLVQAGGSLRLSCAASGRTFAPNAMRWSRQAPGKERELVARITWSGTDTYYADSVKGRFTISRDNAKNTVYLQMNSLKPEDTAVYYCAADARYSRRYYYWGQGTQVTVSS | low polyreactivity
11 | QVQLVESGGGVVQAGGSLRLSCAASGRINARYAMGWYRQAPGKERELVAAITSGGGTYYADSVKGRFTISRDNAKNTVYLQMNSLKPEDTAVYYCAARWLSRGYEYYYWGQGTQVTVSS | high polyreactivity
12 | QVQLVESGGGLVQAGGSLRLSCAASGGTFYGYAAMGWYRQAPGKERELVAAISRSGGRTYYADSVKGRFTISRDNAKNTVYLQMNSLKPEDTAVYDCNVGFYPYSFLTFQGGDYWGQGTQVTVSS | high polyreactivity
13 | QVQLVESGGGLVQAGGSLRLSCAASGLTFSVYTMGWYRQAPGKERELVAAITTSGGRTYYADSVKGRFTISRDNAKNTVYLQMNSLKPVDPAVYYCAAVRTGDTTGTMGYWGQGTQVTVSS | high polyreactivity
14 | QVQIVESGGGLVQAGGSLRLSCAASGRILKYYAMGWYRPAPGKEREFVASIRYSGGSTYADSVKGRFTISRDNAKNTVYLQMNSLKPEDTAGYYCNAQLSWTKFAYRGMDYGGQGTQVTVSS | high polyreactivity
15 | QVQLVEAGGGLVQAGGSLRLSCAASGIIFYLYTMGWYRPAPGKERELVAAISSSDGSTYYADSVKGRFTISRDNAKNTVYLQMNSLKPEDTAVYYCAAEYRGYLDDYYYWGQGTQVTVSS | high polyreactivity
16 | QVQLVESGGCLVQAGGSLRLSCAASGSIFQPYAMGWYRQEPGKEREIVAAISQSGTSTYYADSVNGRFTISRDNAKNTVYLQMNSLKPEVTAVYYCAAQCWHLDSQWQLYNYFYWGQGTQVTVSS | high polyreactivity
17 | QVQLVESGGGLVQAGGSLRLSCAASGNIFPDYAMGWYRQAPGKERELVAAISWSGGSTYYADSVKGRFTISRDNAKNTVYLQMNSLKPEETAVYYCAAGRRGRSYNRIRYDYWGQGTQVTVSS | high polyreactivity
18 | QVQLVESGGGLVQAGGRLRLSCAASGGIFESYAMGWYRQAPGKERELVATITGSGGNTYYADSVKGRFTISRDNAKNTVYLQMNSLKPEDTAVYYCAADTYITPHYLPLLYFLMEYWGQGTQVTVSS | low polyreactivity
19 | QVQLVESGGGLVQAGGSLRLSCAASGRTFSYYAMGWYRPAPGKEREFVAAISSTGTSTYYADSVKGRFTISRDNAKNTVYLQMNSLKPEDTAVYYCNARVATYRLHSKFYYWGQGTQVTVSS | high polyreactivity
20 | QVQLVESGGGLVQAGGSLRLSCAASGLIFRGYAMGWYRQAPGKERELVAAISSIAGSTYYADSVKGRFTISRDNAKNTVYLQMNSLKPEDTAVYYCAARSRWTFRDYYYWGQGTQVTVSS | high polyreactivity
21 | HVQLVEAGGGLVQAGGSLRVSCAASGFTIHYNAMGWYRQAPGKGWELVATISKSAGITSYADSVKGRFTISRDNATNTVYFPMNSLKPEDTAVYYCAADKSYRRVYYWGQGSQVTVSS | low polyreactivity
22 | QVQLVESAGGLVQAGGSLRLSCAASGITLSYNAMGWYRQAPGKERELVAAISARGGSTYYADSVKGRFTISRDPAKNTVYLQMYSLKPEDTAVYYCAAPRGWRQNKYDYWGQVTQVTVSS | high polyreactivity

Row | Sequence | polyreactivity (PSR sort gate)
23 | QVQLVESGGGLVQAGGSLRLSCAASGRTFYYNAMGWYRQAPGKERELVAAISASSGRTYYADSVKGRFTISRDNAKNTVYFPMNSLKPEDTAVYYCANRYGGDYTRGYGYWGQGTQVTVSS | high polyreactivity
24 | QVQLVESGGGLVQAGGSLRLSCAASGFTFGRYAMGWYRQAPGKERELVATITRTGSTNYADSVKGRFTISRDNAKNTVYLQMNSLKPEDTAVYYCNAGPDRRVSYYRLLDHWGQGTQVTVSS | low polyreactivity
25 | QVQLVESGGGLVQAGGSLRLSCAASGRTFANNAMGWYRQAPGKERELVARISNSGSTNYADSVKGRFTISRDNAKNTVYLQMNSLKPEDTAVYYCAARIVRLYSRYDYWGQGTQVTVSS | low polyreactivity
26 | QVQLVESGGGLVQAGGSLRLSCAASGIIFGIYDMGWYRQAPGKESELVAAIRRSGGSTYYADSVKGRFTISRDNAKNTVYLQMNSLKPEDTAVYYCAATRHSRVRGGDYWGQGTQVTVSS | low polyreactivity
27 | QVQLVESGGGLVQAGGCLRLSCAASGFTFIYYVMGWYRQAPGIERELVAAINGRGDRKYYADSVKGRFTISRDNAKNTVYLQMTSLKPEETAVYYCNARTHTWGYSAKFDYWGQGTQVTVSS | high polyreactivity
28 | QGQLVESGGGLVQAGGSLRLSCAASGFIFSIYAMGWYRQAPGKDRELVAGIDNGGGTYYADSGKGRFTISRDNAKNTVYLQMNRLKPEDTAVYYCAADTYSIGELYDYWGQGTQVTVSS | low polyreactivity
29 | QVQLVESGGGLVQAGGSLRLSCAAYGTIFFSYSMGWYRQAPGKERELVADIRSSDDDTYYADSVKGRFTISRDNAKNTGYLQMNSMKPEDTAVYYCNADFGYWWDGRRYDYWGQGTQVTVSS | low polyreactivity
30 | QVQLVESGGGLVQAGGSLRLSCAASGFTFNQYAMGWYRQAPGKERELVAAITGSGGSTYYADSVKGRFTISRDNAKNTVYLQMNSLKPEDTAVYYCNRDRFSRFYWGQGTQVTVSS | high polyreactivity
31 | QVQLVESGGGLVQAGGSLRLSCAASGSTFKWNAMGWYRQAPGKERELVAAISKGSVNTYYADSVKGRFTISRDNAKNTVYLQMNSLKPEDTAVYYCAADRRYPALDYRGQGTQVTVSS | high polyreactivity
32 | QVQVVESGGGLVQAGASLRLSCAASGRTCLHKAMGWYRQAPGKERELVAAIDSRGTTHYADSVKGRFTISRDNAKNTVYLQMNSLKPEDTAVYYCAARPTRGHWWYAYWGQGTQVTVSS | low polyreactivity
33 | QVQLVESGGGLVQAGGSLRLSCAASGRIFKYYVMGWYRQAPGKERELVATISRRDASTYYADSVKGRFTISRDNAKNTVYLQMNSLKPEDTAVYYCNADRARSERIKYDYWGQGTQGTVSS | high polyreactivity
34 | QVQLVESGGCLVQAGGSLRLSCAASGFTFRWYTMGWYRQAPGKERELVAAITGSGCTTYYADSVKGRFTISRDNAKNTVYLQMNSVKPEDTAVYYCAAQYFPSRGWSKGYDYWGHGTQVTVSS | high polyreactivity
35 | QVQLVESGGGLVQAGGSRRLSCAASGRIFLGYTMGWYRQAPGKERELVAAISKSGDSTYYADSVKGRFTISRDNAKNTVYLQMNSLKPEDTAVYYCAAKRYRVGYGYWGQGTQVTVSS | high polyreactivity
36 | HVQLVESGGGLVQAGGSLRLSCAASGFTIQRYAMGWYRQAPGKERELVAAITSGGSTYYADSVKGRFTISRDNAMNTVYLQMNSLKPEDTAVYYCATRAVWSSWGRRYDSWGQGTQVTVSS | high polyreactivity
37 | QVQLVESGGGLVQAGGSLSLSCAASGITFNIYVMGWYRQAPGKERELVAAITDSGGTTYYADSVKGRFTISRDNAKNTVYLQMNSLKPEDTAVYYCAAEPFYSWWWWGDYWGQGTQVTVSS | high polyreactivity
38 | QVQLVESGGGLVQAGGSLRLSCAASGSIFTNNAMGRYRQAPGKERELVAGISFRGSSTYADSVKGRFTISRDNAKNTVYLQMNSLKPEDTAVYYCAAEWFDLEDDYWGQGTQVTVSS | low polyreactivity
39 | QVQLVESGGGLVQAGGSLRLSCAASGRTFGYYAMGWYRTAPGKERELVAAIRSTGSTNYADSVKGRFTISRDNAKNTVYLQMNSLKPEDTAVYYCNAKRRFRYDYWGQGTQVTVSS | low polyreactivity
40 | QVQLVESGGGLVQAGGSLRLSCAASGRTFNKYAMGWYRQAPGKERELVAAISTRGGSTYYADSVKGRFTISRDNAKNNVYLQMNSLKPEDTAVYYCAARLTTVGQGFDYWGQGTKVTVSS | high polyreactivity
41 | QVQLVETAGGLVQAGGTLRLSCPASGFTIFDNAMGWSRHPPGQERELVAVITKRGGSTYYADSVKGRFTISRYNAKNTVYLQMNILKPEDTAVYYCAADSRFSNFGVTQVTSDYWGQGTQVTVSS | low polyreactivity
42 | QVQLVESGGGLVQAGGSLRLSCAASGLIFKTYAIGWYRLAPGNERELVAAISWSGGGNTYYADSVKGRFTISRDNAKNTVYLQMNSLKPEDTAVYYCNAPRFVSYDYWGQGTQVTVSS | high polyreactivity
43 | QVQLVESGGGLVQAGGSLRLSCAASGFTFGSYAMGWYRQAPGKERELVAGISRGGSTNYADSVKGRFTISRDNAKNTVYLQMNSLKPEDTAVYYCAARAVYVADTGATPAGYDYWGQGTQVTVSS | low polyreactivity
